Reference: US20180194862A1 (AbbVie / Abbott, published 2018)
Read-outs that look alike come from different tables or passages of the source.

Columns and labels:
[1] = molecular target: human CD40 on cells (HEK293 stable transfectants, HEK-Blue CD40 cells, human B cells, monocytic cells, … (human, UniProt P25942 21-277)); experiment: cell-based or functional assay
[2] = molecular target: T1, mouse 4-1BB (mouse, UniProt P20334 24-187); experiment: SPR (Biacore)
T1 construct: also called mu4-1BB; murine 4-1BB
T1 sequence (looked up): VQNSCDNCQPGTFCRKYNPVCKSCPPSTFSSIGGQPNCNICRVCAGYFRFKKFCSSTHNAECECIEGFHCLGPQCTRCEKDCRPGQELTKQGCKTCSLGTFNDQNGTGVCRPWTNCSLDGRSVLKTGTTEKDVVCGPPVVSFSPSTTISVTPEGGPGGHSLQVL

[3] = molecular target: T1, mouse 4-1BB; experiment: SPR
[4] = molecular target: T2, human 4-1BB (human, UniProt Q07011 24-186); experiment: SPR
T2 construct: SPR (Biacore) analyte; also called hu4-1BB

[5] = molecular target: T3, cynomolgus 4-1BB (cynomolgus, UniProt A9YYE7 24-186); experiment: SPR
T3 sequence: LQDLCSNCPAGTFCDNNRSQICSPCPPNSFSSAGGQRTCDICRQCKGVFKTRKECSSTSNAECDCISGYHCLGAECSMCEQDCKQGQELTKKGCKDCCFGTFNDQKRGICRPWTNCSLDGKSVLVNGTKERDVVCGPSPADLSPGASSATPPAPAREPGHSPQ

[6] = molecular target: T2, human 4-1BB; experiment: SPR (Biacore)
[7] = molecular target: T4, soluble form of the extracellular domain of cynomolgus (cyno) CD40 (Creative BioMart) (cynomolgus, UniProt G7PG38 21-193); experiment: SPR
T4 construct: extracellular domain; also called Cynomolgus CD40

[8] = molecular target: T5, soluble form of the extracellular domain of human CD40 (Creative BioMart) (human, UniProt P25942 21-193); experiment: SPR
T5 construct: Bought

[9] = molecular target: T6, human mesothelin (human, UniProt Q13421 296-580, limits assumed); experiment: SPR
T6 construct: also called Human MSLN

[10] = molecular target: T1, mouse 4-1BB; experiment: SPR; remark: listed apart in the source
[11] = molecular target: T2, human 4-1BB; experiment: SPR; remark: listed apart in the source

T6 sequence (Q13421 other isoform, or with tags, fused parts or gaps limits assumed): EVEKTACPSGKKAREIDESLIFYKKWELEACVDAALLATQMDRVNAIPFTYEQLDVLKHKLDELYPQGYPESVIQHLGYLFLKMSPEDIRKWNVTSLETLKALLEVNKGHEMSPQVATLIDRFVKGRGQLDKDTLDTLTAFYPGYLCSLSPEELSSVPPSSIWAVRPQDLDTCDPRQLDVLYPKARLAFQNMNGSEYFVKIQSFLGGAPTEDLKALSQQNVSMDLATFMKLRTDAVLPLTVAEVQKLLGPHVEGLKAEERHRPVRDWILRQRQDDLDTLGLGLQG
T5 sequence (P25942 21-193 limits assumed): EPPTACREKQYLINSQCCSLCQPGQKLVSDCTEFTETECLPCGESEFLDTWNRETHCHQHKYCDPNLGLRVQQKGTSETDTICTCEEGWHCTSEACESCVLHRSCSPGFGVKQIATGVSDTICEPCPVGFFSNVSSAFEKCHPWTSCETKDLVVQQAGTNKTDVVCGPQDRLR
human CD40 on cells (HEK293 stable transfectants, HEK-Blue CD40 cells, human B cells, monocytic cells, …, sequence (P25942 21-277 limits assumed): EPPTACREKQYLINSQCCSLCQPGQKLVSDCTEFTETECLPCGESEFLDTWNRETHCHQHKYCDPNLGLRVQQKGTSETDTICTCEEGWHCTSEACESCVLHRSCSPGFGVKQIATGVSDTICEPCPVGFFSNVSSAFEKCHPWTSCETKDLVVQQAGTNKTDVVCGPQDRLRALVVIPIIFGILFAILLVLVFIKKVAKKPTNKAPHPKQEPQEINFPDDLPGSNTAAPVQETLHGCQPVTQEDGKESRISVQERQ

B1: CF4 (bispecific antibody, human IgG1, lambda)
heavy: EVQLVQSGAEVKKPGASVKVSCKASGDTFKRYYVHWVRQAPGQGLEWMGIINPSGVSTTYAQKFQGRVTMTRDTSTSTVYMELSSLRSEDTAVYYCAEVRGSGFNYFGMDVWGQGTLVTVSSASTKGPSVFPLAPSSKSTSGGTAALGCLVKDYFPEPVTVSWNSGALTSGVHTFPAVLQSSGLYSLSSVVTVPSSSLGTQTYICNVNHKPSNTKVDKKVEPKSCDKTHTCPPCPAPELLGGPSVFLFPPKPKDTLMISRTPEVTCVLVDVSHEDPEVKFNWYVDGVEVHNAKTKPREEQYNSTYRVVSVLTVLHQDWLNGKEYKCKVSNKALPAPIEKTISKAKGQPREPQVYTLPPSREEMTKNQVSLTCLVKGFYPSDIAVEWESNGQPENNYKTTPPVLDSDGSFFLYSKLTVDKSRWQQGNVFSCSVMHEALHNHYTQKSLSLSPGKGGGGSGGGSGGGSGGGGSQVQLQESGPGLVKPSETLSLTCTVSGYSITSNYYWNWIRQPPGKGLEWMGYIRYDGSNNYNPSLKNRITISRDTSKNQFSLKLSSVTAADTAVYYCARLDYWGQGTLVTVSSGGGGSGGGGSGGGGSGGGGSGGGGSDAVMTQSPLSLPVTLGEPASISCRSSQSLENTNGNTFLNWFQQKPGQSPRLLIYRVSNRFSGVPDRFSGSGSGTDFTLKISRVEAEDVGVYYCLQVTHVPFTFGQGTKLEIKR
light: SYELTQPPSVSVSPGQTASITCSGDKLGDKYASWYQQKPGQSPVLVIYQDNRRPSGIPERFSGSNSGNTATLTISGTQAMDEADYYCQAWDSDTYVFGTGTKVTVLGQPKAAPSVTLFPPSSEELQANKATLVCLISDFYPGAVTVAWKADSSPVKAGVETTTPSKQSNNKYAASSYLSLTPEQWKSHRSYSCQVTHEGSTVEKTVAPTECS
B1 was tested, and the “Max. IL-12p70, dendritic cells with cell-surface mesothelin” value (“Max. IL-12p70, dendritic cells” for short) [1] was 50 pg/mL.

B2: CF5 (bispecific antibody, human IgG1, lambda)
heavy: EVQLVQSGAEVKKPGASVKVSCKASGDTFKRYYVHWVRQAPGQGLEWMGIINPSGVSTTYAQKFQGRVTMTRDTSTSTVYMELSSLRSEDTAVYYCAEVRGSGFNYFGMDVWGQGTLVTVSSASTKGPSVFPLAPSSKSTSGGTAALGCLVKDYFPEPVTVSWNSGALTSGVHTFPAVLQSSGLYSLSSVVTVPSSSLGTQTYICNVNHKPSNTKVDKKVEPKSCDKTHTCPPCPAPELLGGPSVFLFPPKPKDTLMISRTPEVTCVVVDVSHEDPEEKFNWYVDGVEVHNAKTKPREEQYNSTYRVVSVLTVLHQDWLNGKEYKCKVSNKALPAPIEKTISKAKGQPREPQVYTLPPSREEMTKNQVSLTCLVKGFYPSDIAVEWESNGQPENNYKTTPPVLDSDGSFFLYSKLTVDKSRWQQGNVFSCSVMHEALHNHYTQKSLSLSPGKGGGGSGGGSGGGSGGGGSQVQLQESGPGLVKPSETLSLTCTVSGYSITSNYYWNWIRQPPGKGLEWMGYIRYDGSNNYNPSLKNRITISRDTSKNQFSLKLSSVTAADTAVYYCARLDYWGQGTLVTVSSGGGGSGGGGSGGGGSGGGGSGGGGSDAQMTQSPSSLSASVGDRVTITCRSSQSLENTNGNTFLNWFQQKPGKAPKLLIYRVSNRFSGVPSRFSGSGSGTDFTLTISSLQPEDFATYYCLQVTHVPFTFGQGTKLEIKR
light: SYELTQPPSVSVSPGQTASITCSGDKLGDKYASWYQQKPGQSPVLVIYQDNRRPSGIPERFSGSNSGNTATLTISGTQAMDEADYYCQAWDSDTYVFGTGTKVTVLGQPKAAPSVTLFPPSSEELQANKATLVCLISDFYPGAVTVAWKADSSPVKAGVETTTPSKQSNNKYAASSYLSLTPEQWKSHRSYSCQVTHEGSTVEKTVAPTECS
B2 was tested, and the “Max. IL-12p70, dendritic cells” value [1] was 60 pg/mL.

B3: CF9 (bispecific antibody, human IgG1, lambda)
heavy: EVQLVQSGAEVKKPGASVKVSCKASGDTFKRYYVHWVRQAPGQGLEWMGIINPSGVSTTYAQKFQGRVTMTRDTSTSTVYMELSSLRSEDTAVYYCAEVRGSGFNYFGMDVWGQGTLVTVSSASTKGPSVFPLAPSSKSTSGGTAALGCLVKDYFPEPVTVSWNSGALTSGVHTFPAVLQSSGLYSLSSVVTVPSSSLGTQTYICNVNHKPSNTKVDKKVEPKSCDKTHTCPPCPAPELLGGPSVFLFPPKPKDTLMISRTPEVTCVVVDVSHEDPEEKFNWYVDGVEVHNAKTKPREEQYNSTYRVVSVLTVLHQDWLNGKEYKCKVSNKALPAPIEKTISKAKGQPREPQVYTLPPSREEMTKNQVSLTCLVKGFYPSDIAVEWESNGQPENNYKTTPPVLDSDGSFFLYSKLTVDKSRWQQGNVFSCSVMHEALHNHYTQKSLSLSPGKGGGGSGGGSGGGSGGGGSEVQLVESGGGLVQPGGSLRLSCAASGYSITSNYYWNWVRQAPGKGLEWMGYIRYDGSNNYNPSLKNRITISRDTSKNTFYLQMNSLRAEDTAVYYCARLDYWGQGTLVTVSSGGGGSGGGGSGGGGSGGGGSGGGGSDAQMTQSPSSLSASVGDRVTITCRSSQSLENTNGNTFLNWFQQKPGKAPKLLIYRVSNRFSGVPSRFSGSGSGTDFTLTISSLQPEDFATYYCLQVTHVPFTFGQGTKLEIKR
light: SYELTQPPSVSVSPGQTASITCSGDKLGDKYASWYQQKPGQSPVLVIYQDNRRPSGIPERFSGSNSGNTATLTISGTQAMDEADYYCQAWDSDTYVFGTGTKVTVLGQPKAAPSVTLFPPSSEELQANKATLVCLISDFYPGAVTVAWKADSSPVKAGVETTTPSKQSNNKYAASSYLSLTPEQWKSHRSYSCQVTHEGSTVEKTVAPTECS
For B3, the “Max. IL-12p70, dendritic cells” value [1] was 120 pg/mL.

B4: TABBY106-rIgG1 (antibody, V domains shown)
VH: QVQLQQSGAELAKPGTSVKLSCKASGYTFTSYYIYWVKQRPGQGLEWIGNIWPGNGGTFYGEKFMGKATFTADTSSSTAYMLLGSLTPEDSAYYFCARRPDYSGDDYFDYWGQGVLVTVSS
VL: QVVLTQPKSVSTSLKSTVKLSCKLNSGNIGSYYVHWYQQHAGRSPTTMIYRDDKRPDGVPDRFSGSIDSSSNSAFLTINNVQTEDDAIYFCHSYDSTITPVFGGGTKLTVL
notes: rat IgG1, lambda
Binder B4 has a Kd [2] of 1.6 nM, a Kd [3] of 1.6 nM and a koff [3] of 0.013 s⁻¹. For the same binder, the kon [3] was 8.1e+06 M⁻¹ s⁻¹, the Kd [4] was 12 nM and the koff [4] was 0.026 s⁻¹. It also gave a kon [4] of 2.2e+06 M⁻¹ s⁻¹, a Kd [5] of 18 nM and a koff [5] of 0.022 s⁻¹. It also gave a kon [5] of 1.2e+06 M⁻¹ s⁻¹.

B5: TABBY107-rIgG1 (antibody, V domains shown)
VH: QVKLVQSGAALVKPGASVKMSCKASDYTFNDYWVSWVKQRHGESLEWIGEIYPNSGATNFNGKFRGKATLTVDNPTSTAYMELSRLTSEDSAIYYCTREYTRDWFAYWGQGTLVTVSS
VL: DVVLTQTPSILSATIGQSVSISCRSSQSLLDSDGNTYLYWFLQRPGQSPQRLIYLVSNLGSGVPNRFSGSGSGTDFTLKISGVEAEDLGIYYCMQPTHAPYTFGAGTKLELK
notes: rat IgG1, kappa
B5 gave a Kd [2] of 6.7 nM, a Kd [3] of 6.7 nM and a koff [3] of 0.0016 s⁻¹. It also gave a kon [3] of 240000 M⁻¹ s⁻¹, a Kd [4] of 0.32 nM and a koff [4] of 0.00014 s⁻¹. The kon [4] was 450000 M⁻¹ s⁻¹, the Kd [5] was 0.36 nM and the koff [5] was 0.00013 s⁻¹. For the same binder, the kon [5] was 350000 M⁻¹ s⁻¹.

B6: TABBY1.1-mIgG1 (antibody, V domains shown)
VH: EVQLVESGGDLVKPGGSQKLSCAASGFTFSSYGMSWVRQTPDRRLEWVAAIISGGSYTYYPDSVKGRFTISRDNAKNTLYLQMNSLKSEDTAMYYCARHGGYDGNYDYYAMDYWGQGTSVTVSS
VL: DVLMTQTPLSLPVSLGDQASISCRSSQSIVDSDGITYLEWYLQKPGQSPKLLIYKVSNRFSGVPDRFSGSGSGTDFTLRISRVEAEDLGLYYCFQVSHVPWTFGGGTKLEIK
notes: mouse IgG1
B6 gave a Kd [6] of 2 nM.

B7: TABBY3-mIgG2b (antibody, V domains shown)
VH: GVQLVESGGGLVQPGGSRKLSCAASGFTFSSFGMHWFRQAPEKGLEWVAYISSGSSTIYYADTLKGRFTISRDNPKNTLFLQMTSLRSEDTAMYYCARDWVDYWGQGTTLTVSS
VL: DIVITQDELSNPVTSGESASISCRSSKSLLYKDGKTYLNWFLQRPGQSPQLLIYLMSTRASGVSDRFTGSGSGTDFTLEISRVKAEDVGVYYCQQPVEYPYTFGGGTKLEIK
notes: mouse IgG2b
B7 was tested, and the Kd [6] was 6.6 nM.

B8: TABBY5-mIgG2b (antibody, V domains shown)
VH: EVQLQQSGAELVRPGASVKLSCTASGFNIKDYYMHWVKQRPEQGLEWIGRIDPEDGDTEYVPKFQGKATMTADTSSNTAYLQLSSLTSEDTAVYYCTPYSNYVYWYFDVWGTGTTVTVSS
VL: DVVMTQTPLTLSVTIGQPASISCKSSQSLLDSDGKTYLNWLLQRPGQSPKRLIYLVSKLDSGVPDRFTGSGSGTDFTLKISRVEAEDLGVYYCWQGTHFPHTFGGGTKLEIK
notes: mouse IgG2b
Work on B8 yielded a Kd [6] of 0.3 nM.

B9: TABBY6-mIgG1 (antibody, V domains shown)
VH: EVQLQQSGAELVRPGASVKLSCTASGFNIKDYYMHWVKQRPEQGLEWIGRIDPEDGDTEYAPKFQGKATMTADTSSNTAYLQLSTLTSEDTAVYYCTPYSNYVYWYFDVWGTGTTVTVSS
VL: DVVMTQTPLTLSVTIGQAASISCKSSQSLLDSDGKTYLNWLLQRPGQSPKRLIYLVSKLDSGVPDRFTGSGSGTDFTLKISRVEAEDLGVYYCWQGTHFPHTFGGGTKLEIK
notes: mouse IgG1
B9 gave a Kd [6] of 1.9 nM.

B10: TABBY10-mIgG1 (antibody, V domains shown)
VH: QIQLVQSGPELKKPGETVKISCKASGYTFTTYGMSWVKQAPGKGLKWMGWINTYSGVPTYADDFKGRFAFSLETSASTAYLQINNLKNEDTATYFCARGNDGNYYGWFAHWGQGTLVTVSA
VL: DIQMTQSPSSLSASLGGKVTITCKASQDIHNYISWYQHKPGKGPRLVIHYTSTLQPGIPSRFSGSGSGRDYSFSISNLEPEDIATYYCLQYDNLYTFGGGTKLEIK
notes: mouse IgG1
Binder B10 has a Kd [6] of 3.1 nM.

B11: V5-2 (bispecific antibody)
chain 1: EVQLQESGPGLVKPSETLSLTCTVSGYSITSNYYWNWIRQPPGKGLEWMGYIRYDGSNNYNPSLKNRVTISRDTSKNQFSLKLSSVTAADTAVYYCARLDYWGQGTTVTVSS
chain 2: DAVMTQTPLSLSVTPGQPASISCRSSQSLENTNGNTFLNWYLQKPGQSPQLLIYRVSNRFSGVPDRFSGSGSGTDFTLKISRVEAEDVGVYYCLQVTHVPFTFGQGTKLEIK
chain 3: EVQLVQSGAEVKKPGASVKVSCKASGDTFKRYYVHWVRQAPGQGLEWMGIINPSGVSTTYAQKFQGRVTMTRDTSTSTVYMELSSLRSEDTAVYYCAEVRGSGFNYFGMDVWGQGTLVTVSS
chain 4: SYELTQPPSVSVSPGQTASITCSGDKLGDKYASWYQQKPGQSPVLVIYQDNRRPSGIPERFSGSNSGNTATLTISGTQAMDEADYYCQAWDSDTYVFGTGTKVTVL
B11 showed a Kd [7] of 120 nM, a koff [7] of 0.11 s⁻¹ and a kon [7] of 940000 M⁻¹ s⁻¹. The Kd [8] was 150 nM, the koff [8] was 0.25 s⁻¹ and the kon [8] was 1.7e+06 M⁻¹ s⁻¹. For the same binder, the Kd [9] was 2 nM, the koff [9] was 2.8e-05 s⁻¹ and the kon [9] was 14000 M⁻¹ s⁻¹.

B12: V6-8 (bispecific antibody)
chain 1: EVQLQESGPGLVKPSETLSLTCTVSGYSITSNYYWNWIRQPPGKGLEWMGYIRYDGSNNYNPSLKNRVTISRDTSKNQFSLKLSSVTAADTAVYYCARLDYWGQGTTVTVSS
chain 2: DAQMTQSPSSLSASVGDRVTITCRSSQSLENTNGNTFLNWFQQKPGKAPKLLIYRVSNRFSGVPSRFSGSGSGTDFTLTISSLQPEDFATYYCLQVTHVPFTFGQGTKLEIK
chain 3: EVQLLESGGGLVQPGGSLRLSCAASGFTFSSYAMSWVRQAPGKGLEWVSAISGGGGRTYYADSVKGRFTISRDNSKNTLYLQMNSLRAEDTAVYYCAREEMAFRAYRFDIWGQGTLVTVSS
chain 4: not shown
Work on B12 yielded a Kd [7] of 11 nM, a koff [7] of 0.013 s⁻¹ and a kon [7] of 1.3e+06 M⁻¹ s⁻¹. It also gave a Kd [8] of 14 nM, a koff [8] of 0.014 s⁻¹ and a kon [8] of 970000 M⁻¹ s⁻¹. The Kd [9] was 11 nM, the koff [9] was 0.0015 s⁻¹ and the kon [9] was 130000 M⁻¹ s⁻¹.

B13: hu106-1 (antibody, V domains shown)
VH: EVQLVQSGAEVKKPGSSVKVSCKASGYTFTSYYIYWVRQAPGQGLEWIGNIWPGNGGTFYGEKFMGRATFTADTSTSTAYMELSSLRSEDTAVYYCARRPDYSGDDYFDYWGQGTLVTVSS
VL: NVMLTQPHSVSESPGKTVTISCKLNSGNIGSYYVHWYQQRPGSSPTTMIYRDDKRPDGVPDRFSGSIDSSSNSASLTISGLKTEDEADYYCHSYDSTITPVFGGGTKLTVL
notes: human IgG1 constant regions with L234A and L235A
Work on B13 yielded a Kd [10] of 17 nM, a koff [10] of 0.036 s⁻¹ and a kon [10] of 2.2e+06 M⁻¹ s⁻¹. The Kd [11] was 130 nM, the koff [11] was 0.074 s⁻¹ and the kon [11] was 570000 M⁻¹ s⁻¹.

B14: hu107-1 (antibody, V domains shown)
VH: EVQLVQSGAEVKKPGSSVKVSCKASDYTFNDYWVSWVRQAPGQGLEWIGEIYPNSGATNFNGKFRGRATLTVDNSASTAYMELSSLRSEDTAVYYCTREYTRDWFAYWGQGTLVTVSS
VL: DVVLTQSPLSLPVTLGQPASISCRSSQSLLDSDGNTYLYWFQQRPGQSPRRLIYLVSNLGSGVPDRFSGSGSGTDFTLKISRVEAEDVGVYYCMQPTHAPYTFGQGTKLEIK
notes: as for B13
Binder B14 has a Kd [10] of 5.2 nM, a koff [10] of 0.0013 s⁻¹ and a kon [10] of 240000 M⁻¹ s⁻¹. For the same binder, the Kd [11] was 0.16 nM, the koff [11] was 6.5e-05 s⁻¹ and the kon [11] was 410000 M⁻¹ s⁻¹.
